In the supplement of paper PMC10567573:

B1: C9orf25 (parent)
chain: LARKGSLKNGSMGSPVNQQPKKNN

Variants of: B1
Assay: protein stability index of a GFP-peptide fusion (GPS, HEK-293T) (PSI 1-6); higher = more stable
Conditions: c terminus: a fixed tail appended
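Note: lentivirally expressed fusions sorted by FACS into six bins by GFP to DsRed ratio, PSI derived from sequencing read proportions per bin multiplied by bin number.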

Protein stability index of substitutions, site by site:
K22: N 4.43; H 4.02; E 5.05; G 4.54; T 4.28; V 3.17; F 3.56; D 4.21; S 4.41; C 4.49; W 3.9; A 4.51; P 4.42; L 3.81; Q 4.82
S6: F 4.36; K 4.37; W 4.23; Y 4.89; C 4.05; T 4.76; D 5.1; Q 4.76; V 4.29; P 4.59; M 4.38; I 4.72; A 4.33; L 4.12
P20: C 4.54; F 4.03; Q 4.72; L 4.11; H 3.98; D 5.23; K 4.36; N 4.67; G 4.5; Y 4.32; V 5.07; R 4.25; T 3.92; E 4.59; A 4.54; M 4.56
V16: M 4.62; S 4.68; L 4.64; H 5.1; G 4.75; C 4.23; T 4.75; I 4.79; E 5.39; W 4.01
A2: G 4.76; E 5.09; P 5.21; H 4.77; Q 4.63; N 4.59; M 4.9; D 4.87; R 3.68; T 4.54; Y 4.24; F 4.04; C 4.12; S 4.72; W 4.03
L7: A 4.51; C 5.02; M 4.66; N 4.55; G 4.57; I 4.56; F 4.2; R 4.14; K 5.32; E 3.63; W 3.97; P 4.71; H 4.76; T 4.71; S 4.83; D 4.01
S14: F 4.3; N 4.81; L 4.5; I 4.62; M 4.97; Q 4.74; E 4.75; V 4.77; Y 4.25; T 4.42; C 4.06; D 4.96; K 4.83; P 5.02; G 4.8; R 4.23; A 4.73
Q18: Y 4.17; W 3.67; H 4.82; M 4.64; V 4.64; N 4.59; E 5.18; F 4.4; G 4.37; D 5.17; R 4; P 4.55; L 4.32; K 5.08
P15: C 4.48; L 4.59; W 4.27; G 5; A 4.42; V 4.62; F 4.2; H 4.24; T 4.95; Q 5.26; E 4.53; Y 4.4; M 4.66
L1: G 5.15; M 4.89; T 4.31; H 4.95; I 4.66; Y 3.77; R 4.81; N 5.07; W 4.3; S 5.53; F 3.96; V 4.92; D 5.07; E 5.35
N9: Q 4.92; M 4.18; H 4.63; P 4.36; D 5.27; E 5.29; T 4.78; G 4.74; S 4.94; R 4.43; K 4.17; Y 4.64; F 4.21; C 4.46; A 4.6; W 3.21
R3: T 4.85; V 4.85; S 4.67; Q 4.99; P 5.03; M 4.85; W 4.14; K 4.33; N 4.96; D 5.2; A 5.05; Y 4.73; L 4.41
K21: F 4.07; E 4.87; V 4.32; T 4.39; H 4.9; P 4.18; R 4.82; D 5.25; Q 4.48; M 4.21; A 4.7; G 4.25; W 2.95; I 4.28
G10: H 4.67; T 4.81; D 4.61; N 4.99; E 5.04; I 4.76; Y 4.35; A 4.83; M 4.85; S 4.14; F 4.25; P 4.86; R 4.12; V 4
M12: Y 4.4; F 4.56; D 5.06; E 5.29; G 4.49; R 4.7; K 5.15; Q 4.4; N 4.43; C 4.58; P 4.84; I 4.42; A 4.42
K4: W 4.15; Q 3.95; P 4.92; E 4.91; H 4.68; A 4.74; V 4.42; F 5.08; R 3.74; T 5; Y 4.13; C 4.74; N 4.25; D 4.88
N23: T 4.89; K 4.61; D 5.02; Q 4.64; L 4.04; P 5.24; Y 3.82; C 4.68; G 4.66; S 4.58; W 4; F 4.19; M 3.73; V 4.59; E 4.68; H 4.91; I 4.61
G13: C 5.04; E 5.23; V 4.69; F 4.06; T 4.79; R 4.36; H 4.58; A 4.79; S 3.98; L 4.92; N 4.97; M 4.44
G5: N 4.07; Y 3.27; P 4.48; F 4; E 4.82; V 4.26; Q 4.6; I 3.99; M 4.06; H 4.49; W 4.06; C 4.29; R 4.34
N24: P 4.48; A 4.52; K 5.08; C 4.69; D 4.85; G 4.76; Y 3.78; T 4.83; I 3.82; L 4.76; E 4.14; R 4.42; S 4.7
N17: T 3.98; R 4.47; K 4.47; E 5.07; F 4.31; I 4.72; V 4.6; H 5.11; Q 4.74; G 4.27; W 3.62
K8: Q 4.84; D 4.2; F 4.42; R 4.57; P 4.71; T 4.53; L 4.12; G 5; M 4.45; S 4.73; W 4.1; A 4.55
S11: Y 4.35; N 4.88; M 4.22; T 4.81; F 4.15; P 4.67; W 4.45; E 4.96; C 4.5; Q 4.29; K 4.7; R 4.61; G 5.27
Q19: D 4.78; C 4.68; E 4.73; K 4.22; M 4.74; P 4.39; I 4.85; V 4.86; S 4.89; F 4.5; G 5.02; W 3.79; A 4.92; H 4.69; R 4.45
